Results: publication PMC5348903

Target: BST2 (WT BST2 expressor) (UniProt Q10589)
Experiment: co-immunoprecipitation (anti-BST2 Ab pull-down, Western blot densitometry)
Details: HEK293T cells co-transfected with proviral construct and BST2 expressor; parent: 100

| Substance | percent of parent (% BST2 binding (relative to WT)) |
| --- | --- |
| HIV-1 NL4-3 Vpu, wildtype A10L; A14L; A18L | 14 |
| HIV-1 NL4-3 Vpu, wildtype E28A; L33A | 24 |
| HIV-1 NL4-3 Vpu, wildtype E28A; L33A; E59K; L63F | 43 |
| HIV-1 NL4-3 Vpu, wildtype E59K; L63F | 139 |
| HIV-1 NL4-3 Vpu, wildtype S52D; S56D | 130 |

Target: short isoform of BST2, Q10589-2
Experiment: co-immunoprecipitation (Western blot densitometry)
Details: HEK293T cells co-transfected with proviral construct and expressor of the short isoform of BST2; parent: 100

Chain of short isoform of BST2, Q10589-2 (Q10589 13-161): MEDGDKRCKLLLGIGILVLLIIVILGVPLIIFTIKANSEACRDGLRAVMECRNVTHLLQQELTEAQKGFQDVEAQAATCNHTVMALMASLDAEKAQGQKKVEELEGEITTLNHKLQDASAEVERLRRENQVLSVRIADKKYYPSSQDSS

| Substance | percent of parent (% BST2 binding (relative to WT)) |
| --- | --- |
| HIV-1 NL4-3 Vpu, wildtype A10L; A14L; A18L | 12 |
| HIV-1 NL4-3 Vpu, wildtype E28A; L33A | 18 |
| HIV-1 NL4-3 Vpu, wildtype E28A; L33A; E59K; L63F | 31 |
| HIV-1 NL4-3 Vpu, wildtype E59K; L63F | 144 |
| HIV-1 NL4-3 Vpu, wildtype S52D; S56D | 111 |
